From patent US20240376170A1 (BRIGHT PEAK THERAPEUTICS, published 2024)
“And” between values parts separate entries of the source, which are not always exact repeats. Identical values can stand only once. One block for each binder: values may come before it. Primed or numbered codes have the meaning given here. [ ]: non-standard residue; d: D form. Ygp = O-(8x polyethylene glycol-amino)-tyrosine (Tyr, amino-capped PEG8); Yn3 = O-(9x polyethylene glycol-azido)-tyrosine (Tyr, azide-capped PEG9); Ygp(7) = Tyr with amino-capped PEG8, O-(PEG8-amino)-tyrosine; Yn3(7) = Tyr with azide-capped PEG9, O-(PEG9-azido)-tyrosine; Ygp″ = O-(8x polyethylene glycol-amino)-tyrosine; Yn3″ = O-(9x polyethylene glycol-azido)-tyrosine; Ygp(3) = O-(PEG8-amino)-tyrosine; Yn3(3) = O-(PEG9-azido)-tyrosine; hSer = N[C@@H](CCO)C(=O)O; Nle = CCCC[C@H](N)C(=O)O; Dab = NCC[C@H](N)C(=O)O

Columns and labels:
IL-2 receptor βγ complex [1] = biological target: T1, IL-2 receptor βγ complex (human, UniProt P14784 27-551; P31785 23-369); experiment: cell-based or functional assay
T1 sequence (looked up) 1: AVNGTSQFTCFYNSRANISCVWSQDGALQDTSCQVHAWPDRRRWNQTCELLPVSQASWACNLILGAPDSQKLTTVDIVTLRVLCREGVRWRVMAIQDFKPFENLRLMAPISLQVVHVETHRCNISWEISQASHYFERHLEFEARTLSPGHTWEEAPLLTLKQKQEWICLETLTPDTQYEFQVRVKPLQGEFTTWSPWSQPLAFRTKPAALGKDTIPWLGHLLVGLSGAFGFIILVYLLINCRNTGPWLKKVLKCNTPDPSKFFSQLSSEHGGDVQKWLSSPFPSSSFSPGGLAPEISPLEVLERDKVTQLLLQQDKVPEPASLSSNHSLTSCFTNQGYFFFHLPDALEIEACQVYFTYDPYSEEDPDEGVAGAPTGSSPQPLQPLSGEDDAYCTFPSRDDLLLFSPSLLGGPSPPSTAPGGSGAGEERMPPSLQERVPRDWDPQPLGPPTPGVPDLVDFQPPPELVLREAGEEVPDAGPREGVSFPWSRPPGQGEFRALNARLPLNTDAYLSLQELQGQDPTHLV
T1 sequence (looked up) 2: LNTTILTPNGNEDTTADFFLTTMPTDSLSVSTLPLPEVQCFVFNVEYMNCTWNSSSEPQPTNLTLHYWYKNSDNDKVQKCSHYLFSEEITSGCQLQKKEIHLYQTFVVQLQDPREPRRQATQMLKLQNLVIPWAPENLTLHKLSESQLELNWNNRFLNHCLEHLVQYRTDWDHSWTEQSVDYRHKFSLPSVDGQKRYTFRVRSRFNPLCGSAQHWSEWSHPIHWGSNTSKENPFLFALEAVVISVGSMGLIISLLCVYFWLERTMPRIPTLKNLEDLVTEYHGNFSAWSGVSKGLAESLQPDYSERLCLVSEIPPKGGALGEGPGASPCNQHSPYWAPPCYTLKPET

IL-2 receptor βγ complex [2] = biological target: T1, IL-2 receptor βγ complex; experiment: cell-based or functional assay; remark: listed apart in the source
[3] = biological target: T2, IL-2 receptor βγ complex on C57BL/6 mouse splenocytes (mouse, UniProt P16297 27-539; P34902 23-369); experiment: cell-based or functional assay
T2 sequence (looked up) 1: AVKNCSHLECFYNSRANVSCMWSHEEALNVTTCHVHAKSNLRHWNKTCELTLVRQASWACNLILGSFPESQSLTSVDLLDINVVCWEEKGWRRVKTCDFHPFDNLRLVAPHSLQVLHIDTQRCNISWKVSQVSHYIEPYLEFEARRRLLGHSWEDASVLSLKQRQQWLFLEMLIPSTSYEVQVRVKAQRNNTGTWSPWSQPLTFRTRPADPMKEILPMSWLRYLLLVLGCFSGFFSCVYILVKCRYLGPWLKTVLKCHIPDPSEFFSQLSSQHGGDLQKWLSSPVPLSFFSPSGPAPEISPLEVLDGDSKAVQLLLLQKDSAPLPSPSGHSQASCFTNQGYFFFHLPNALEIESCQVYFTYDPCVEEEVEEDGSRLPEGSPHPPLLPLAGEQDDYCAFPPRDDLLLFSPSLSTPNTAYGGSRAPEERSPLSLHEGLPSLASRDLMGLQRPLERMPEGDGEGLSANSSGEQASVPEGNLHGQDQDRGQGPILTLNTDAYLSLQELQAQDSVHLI
T2 sequence (looked up) 2: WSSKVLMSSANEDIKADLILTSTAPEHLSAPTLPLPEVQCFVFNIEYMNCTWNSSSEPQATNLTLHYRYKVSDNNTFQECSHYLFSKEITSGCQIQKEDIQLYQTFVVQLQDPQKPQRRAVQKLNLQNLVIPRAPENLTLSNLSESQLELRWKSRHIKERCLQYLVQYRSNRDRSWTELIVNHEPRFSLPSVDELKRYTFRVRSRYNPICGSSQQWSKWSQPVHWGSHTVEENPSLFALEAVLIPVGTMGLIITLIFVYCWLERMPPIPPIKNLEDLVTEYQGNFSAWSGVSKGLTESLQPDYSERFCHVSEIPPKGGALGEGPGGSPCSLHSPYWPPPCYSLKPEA

[4] = biological target: T3, Avi-tag Fc with human IL-2R beta and IL-2R gamma attached (Acrobiosystems ACRB-ILG-H82F3-25UG) (human, UniProt P14784 27-239; P31785 23-262); experiment: BLI (Octet R8), receptor on SAX2 sensor
T3 construct: Bought; attached to the SAX2 biosensor; also called CD122 CD132; IL-2R βγ; not shown: Fc and Avi-tag
T3 sequence (looked up) 1: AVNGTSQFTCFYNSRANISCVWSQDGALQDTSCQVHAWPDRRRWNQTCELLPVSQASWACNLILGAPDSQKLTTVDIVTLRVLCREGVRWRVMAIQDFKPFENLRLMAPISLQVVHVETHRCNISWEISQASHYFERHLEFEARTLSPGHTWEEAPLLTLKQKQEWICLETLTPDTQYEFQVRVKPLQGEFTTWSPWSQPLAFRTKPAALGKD
T3 sequence (looked up) 2: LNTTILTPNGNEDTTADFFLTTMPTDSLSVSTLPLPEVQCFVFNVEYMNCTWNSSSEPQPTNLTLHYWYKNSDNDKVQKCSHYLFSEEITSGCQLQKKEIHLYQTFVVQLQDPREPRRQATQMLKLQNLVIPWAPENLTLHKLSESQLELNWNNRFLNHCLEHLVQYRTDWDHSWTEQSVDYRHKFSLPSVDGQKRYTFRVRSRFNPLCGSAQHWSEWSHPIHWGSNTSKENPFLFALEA
Procedure: (§1) Bilayer interferometry (BLI) assays were used to measure the binding constants between activatable IL-2 polypeptides (and activated versions thereof) to IL-2 receptor subunits or receptor complexes. BLI assays were conducted on an Octet® R8 instrument. Assay plates were 96 well, polypropylene, F-bottom (chimney well), black microplates (Greiner Bio-one, Cat. No: 655209). The biosensors were Octet® SAX2 (Sartorius, Cat. No: 18-5136). The assay buffer was 1X Kinetic Buffer (Sartorius, Cat. no: 18-5136) or Phosphate Buffered Saline (PBS) that contained 0.02% (v: v) Tween 20 (Polysorbate 20) and 0.1% (w/v) bovine serum albumin (BSA). The sensor was regenerated between measurements in 10 mM glycine pH 2.7 buffer.
(§2) Sensor attached receptors were either recombinant human IL-2 receptor beta containing a His-tag and Avi-tag™ (R&D Systems™) or an Avi-tag™ Fc with human IL-2R beta and IL-2R gamma attached (Acrobiosystems Cat. no: ACRB-ILG-H₈₂F3-25UG). Receptors were reconstituted from lyophilized powder to 500 μg/ml in PBS. Analytes were diluted in Kinetic buffer to 300 nM, then serially diluted to lower concentrations.

[5] = biological target: T4, recombinant human IL-2 receptor beta containing a His-tag and Avi-tag (human, UniProt P14784 27-239); experiment: BLI (Octet R8), receptor on SAX2 sensor; construct CMP-145, not MMP2-treated
T4 construct: Bought; attached to the SAX2 biosensor; also called CD122; IL-2R β; not shown: His-tag and Avi-tag
T4 sequence (looked up): T3 sequence (looked up) 1
Procedure: as §1, §2

[6] = biological target: T3, Avi-tag Fc with human IL-2R beta and …; experiment: as above
Procedure: as §1, §2

[7] = biological target: T5, IL-2 receptor βγ complex on human T cells (human, UniProt P14784 27-551; P31785 23-369); experiment: cell-based or functional assay
T5 sequence (looked up) 1: T1 sequence (looked up) 1
T5 sequence (looked up) 2: T1 sequence (looked up) 2

Average EC50, pSTAT5 Assay (T cells) (IL-2 receptor βγ complex [1]): 1.81 nM
Average EC50, pSTAT5 Assay in NK cells (IL-2 receptor βγ complex [2]): 0.352 nM
Average EC50, pSTAT5 Assay in mouse splenocytes [3]: 89.2 nM
B1: CMP-151, MMP2 cleaved molecule (ligand)
chain: APTSSSTKKTQLQLEHLLLDLQKILNGINNYKNPKLTR[Nle]L[hSer][Yn3″]KF[Ygp″][Nle]PKKATELKHLQCLEEELKPLEEVL[hSer]LAQSKNFHLRPRDLISNINVIVLELKGSETTF[hSer]CEYADETATIVEFLNRWITFSQSIISTLT
modifications: not fully specified; also: cleaved by MMP2, cleavage product not defined, N-terminal glutaryl-PEG9 link and Lys23 side-chain attachment not defined

Average EC50, pSTAT5 Assay (T cells) (IL-2 receptor βγ complex [1]): 2.4 nM
Average EC50, pSTAT5 Assay in NK cells (IL-2 receptor βγ complex [2]): 0.277 nM
Average EC50, pSTAT5 Assay in mouse splenocytes [3]: 84.7 nM
B2: CMP-136, MMP2 cleaved molecule (ligand)
chain: APTSSSTKKTQLQLEHLLLDLQ[Nle]ILNGIENYKNPKLTR[Nle]L[hSer][Yn3]KF[Ygp][Nle]PKKATELKHLQCLEEELKPLEEVL[hSer]LAQSKNFHLRPRDLISNINVIVLELKGSETTF[hSer]CEYADETATIVEFLNRWITFSQSIISTLT
modifications: ends and bridges not checked; also: cleaved by MMP2, cleavage product not defined, N-terminal PEG9 link and Glu29 side-chain attachment of the cleavable peptide not defined

Average EC50, pSTAT5 Assay (T cells) (IL-2 receptor βγ complex [1]): 2.32 nM
Average EC50, pSTAT5 Assay in NK cells (IL-2 receptor βγ complex [2]): 0.288 nM
Average EC50, pSTAT5 Assay in mouse splenocytes [3]: 75.1 nM
B7: CMP-138, MMP2 cleaved molecule (ligand)
chain: APTSSSTKKTQLQLEHLLLDLQ[Nle]ILNGIENYKNPKLTR[Nle]L[hSer][Yn3]KF[Ygp][Nle]PKKATELKHLQCLEEELKPLEEVL[hSer]LAQSKNFHLRPRDLISNINVIVLELKGSETTF[hSer]CEYADETATIVEFLNRWITFSQSIISTLT
modifications: ends and bridges not checked; also: cleaved by MMP2, cleavage product not defined, N-terminal PEG4 link and Glu29 side-chain attachment of the cleavable peptide not defined

Second part, the binder before the results:

B3: CMP-003 (ligand)
chain: APTSSSTKKTQLQLEHLLLDLQ[Nle]ILNGINNYKNPKLTR[Nle]L[hSer][Yn3]KF[Ygp][Nle]PKKATELKHLQCLEEELKPLEEVL[hSer]LAQSKNFHLRPRDLISNINVIVLELKGSETTF[hSer]CEYADETATIVEFLNRWITFSQSIISTLT
modifications: ends and bridges not checked
Average EC50, pSTAT5 Assay in mouse splenocytes [3]: 24 nM

B4: CMP-003, MMP2 treated (ligand)
chain: APTSSSTKKTQLQLEHLLLDLQ[Nle]ILNGINNYKNPKLTR[Nle]L[hSer][Yn3]KF[Ygp][Nle]PKKATELKHLQCLEEELKPLEEVL[hSer]LAQSKNFHLRPRDLISNINVIVLELKGSETTF[hSer]CEYADETATIVEFLNRWITFSQSIISTLT
modifications: ends and bridges not checked
Average EC50, pSTAT5 Assay in mouse splenocytes [3]: 45.7 nM

B5: CMP-145, MMP2 cleaved molecule (ligand)
chain: APTSSSTKKTQLQLEHLLLDLQKILNGINNYKNPKLTR[Nle]L[hSer][Yn3]KF[Ygp][Nle]PKKATELKHLQCLEEELKPLEEVL[hSer]LAQSKNFHLRPRDLISNINVIVLELKGSETTF[hSer]CEYADETATIVEFLNRWITFSQSIISTLT
modifications: ends and bridges not checked; also: Lys23 side chain attached to another sequence (cleavable peptide), cut by MMP2, product not given here
Average EC50, pSTAT5 Assay in NK cells (IL-2 receptor βγ complex [2]): 82 pM and 0.246 nM
Average EC50, pSTAT5 Assay in mouse splenocytes [3]: 55.2 nM

B6: CMP-145 (ligand)
chain: APTSSSTKKTQLQLEHLLLDLQKILNGINNYKNPKLTR[Nle]L[hSer][Yn3(3)]KF[Ygp(3)][Nle]PKKATELKHLQCLEEELKPLEEVL[hSer]LAQSKNFHLRPRDLISNINVIVLELKGSETTF[hSer]CEYADETATIVEFLNRWITFSQSIISTLT
modifications: also: Lys23 side chain attached to another sequence (not given here)
notes: Synthetic IL-2 polypeptide, tested intact
koff [4]: 0.00117 s⁻¹
Kd [5]: 1830 nM
Kd [6]: 10.2 nM

B8: CMP-130 (ligand)
chain: APTSSSTKKTQLQLE[Dab]LLLDLQ[Nle]ILNGINNYKNPKLTR[Nle]L[hSer][Yn3(7)]KF[Ygp(7)][Nle]PKKATELKHLQCLEEELKPLEEVL[hSer]LAQSKNFHLRPRDLISNINVIVLELKGSETTF[hSer]CEYADETATIVEFLNRWITFSQSIISTLT
modifications: ends and bridges not checked
Average EC50, pSTAT5 Assay (T cells), intact molecule [7]: 66.8 nM
